Experimental data taken from PMC5289526, “Crystal Structure and Catalytic Mechanism of CouO, a Versatile C-Methyltransferase from Streptomyces rishiriensis” (PLoS ONE, 2017).

Target: the molecule itself
Test: SEC; last step of purification; HiLoad 16/60 Superdex 200 pg, 1 ml/min, Hepes pH 7, 100mM NaCl; calibrated with Bio-Rad gel filtration standard

B1: CouO, C-methyltransferase from Streptomyces rishiriensis (enzyme)
chain: MKIEPITGSEAEAFHRMGSRAFERYNEFVDLLVGAGIADGQTVVDLCCGSGELEIILTSRFPSLNLVGVDLSEDMVRIARDYAAEQGKELEFRHGDAQSPAGMEDLLGKADLVVSRHAFHRLTRLPAGFDTMLRLVKPGGAILNVSFLHLSDFDEPGFRTWVRFLKERPWDAEMQVAWALAHYYAPRLQDYRDALAQAADETPVSEQRIWVDDQGYGVATVKCFARRAAA
notes: CouO, SAM-dependent C-methyltransferase of coumermycin A1 biosynthesis, Streptomyces rishiriensis; expected MW 26 kDa; also called CouO-WT; source: purified (last step size exclusion chromatography)
stoichiometry N: 2
